Target: the molecule itself
Experiment: crystal structure; PleD 5 mg/mL with 0.5 µM c-di-GMP and 5 mM ppGpp or pppGpp; sitting-drop vapor diffusion at 19°C; space group P6(1)22, 4 molecules per asymmetric unit; 2.9 Å (ppGpp) and 3 Å (pppGpp)

B1: PleD diguanylate cyclase from Caulobacter crescentus (enzyme)
chain: MSARILVVDDIEANVRLLEAKLTAEYYEVSTAMDGPTALAMAARDLPDIILLDVMMPGMDGFTVCRKLKDDPTTRHIPVVLITALDGRGDRIQGLESGASDFLTKPIDDVMLFARVRSLTRFKLVIDELRQREASGRRMGVIAGAAARLDGLGGRVLIVDDNERQAQRVAAELGVEHRPVIESDPEKAKISAGGPVDLVIVNAAAKNFDGLRFTAALRSEERTRQLPVLAMVDPDDRGRMVKALEIGVNDILSRPIDPQELSARVKTQIQRKRYTDYLRNNLDHSLELAVTDQLTGLHNRRYMTGQLDSLVKRATLGGDPVSALLIDIDFFKKINDTFGHDIGDEVLREFALRLASNVRAIDLPCRYGGEEFVVIMPDTALADALRIAERIRMHVSGSPFTVAHGREMLNVTISIGVSATAGEGDTPEALLKRADEGVYQAKASGRNAVVGKAA
notes: PleD, response regulator and diguanylate cyclase of Caulobacter crescentus (receiver domain D1, adaptor domain D2, DGC domain); expressed from pET11b-pleD; In the crystals each monomer carries two c-di-GMP at the I-site, and one (p)ppGpp and a Mg2+ in the active site; also called PleDCC; source: E. coli BL21(DE3), purified (Ni-NTA, SEC)
  binding result: binds
